Paper PMC3753634

T1: ArpU (phage phiFL2A late transcriptional regulator) (Enterococcus faecalis phage phiFL2A, UniProt D2IZF3 1-155)
T1 sequence: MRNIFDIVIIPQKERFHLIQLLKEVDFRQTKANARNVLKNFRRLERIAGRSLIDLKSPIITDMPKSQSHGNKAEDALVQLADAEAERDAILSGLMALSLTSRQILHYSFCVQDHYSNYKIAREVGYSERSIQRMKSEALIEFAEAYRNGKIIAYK

T2: LtrC (phage phi55 ORF34) (Staphylococcus aureus phage phi55, UniProt Q4ZB49 1-133)
T2 sequence: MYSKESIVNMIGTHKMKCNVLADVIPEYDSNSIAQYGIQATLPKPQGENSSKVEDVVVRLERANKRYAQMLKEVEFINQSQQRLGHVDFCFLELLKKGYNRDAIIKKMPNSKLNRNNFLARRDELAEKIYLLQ

B1: ArpU wt probe (phiFL2A repeat region) (dsDNA)
DNA 1: TAATTTTGGCGGTTTTTGGCGGAAAGTTGGCGGTTTTATACGAATTTGAGTGCTAATATAGTAATATCGAAAG
DNA 2: CTTTCGATATTACTATATTAGCACTCAAATTCGTATAAAAACCGCCAACTTTCCGCCAAAAAACCGCAAAATTA
B2: LtrC wt probe (phi55 repeat region, ORF34wt) (dsDNA)
DNA 1: TTGGCAGAAAAGATTTATCTACTACAGTGACGAAAATGACAAAATGACAGAAATGACGAAAATGACACTATTTTTAAACTGTGAATTAATTTTATATA
DNA 2: TATATAAAATTAATTCACAGTTTAAAAATAGTGTCATTTTCGTCATTTCTGTCATTTTGTCATTTTCGTCACTGTAGTAGATAAATCTTTTCTGCCAA

Columns and labels:
[1] = molecular target: T1, ArpU (phage phiFL2A late …); assay: EMSA
[2] = molecular target: T2, LtrC (phage phi55 ORF34); assay: EMSA

| Binder | binding result [1] | binding result [2] |
| --- | --- | --- |
| B1 | binds | – |
| B2 | – | binds |
